Measured values published in patent publication US20060058189A1.

Molecular target: PpFtsZ2-1-CFP fusion protein (Physcomitrella patens)
Experiment: FRET by acceptor photobleaching, confocal microscopy, cotransfected Physcomitrella protoplasts (FtsZ2-1-CFP donor, FtsZ1-1-YFP acceptor)

- FRET efficiency: 36.5%
Substance: PpFtsZ1-1-YFP fusion protein
